Experiments:
[1] = molecular target: cynomolgus monkey IL-2 receptor beta and gamma (IL-2Rβγ) complex (cynomolgus monkey) (UniProt Q38J85); test: BLI; Octet; who was immobilised, temperature and buffer are not told
[2] = molecular target: cynomolgus monkey IL-2 receptor alpha (IL-2Rα) (cynomolgus monkey); test: as above

- Kd [1]: 1.29 nM
- Kd [2]: 19.9 nM
Substance: recombinant human IL-2 (from UniProt P60568 21-153) (ligand)
